Patent US7524503B2, “Human cytomegalovirus (HCMV) cytotoxic T cell epitopes, polyepitopes compositions comprising same and diagnostic and prophylactic and therapeutic uses therefor” (priority 2001, dated 2009)

Columns and labels:
[1] = system: PBMC from healthy HCMV seropositive donors; experiment: IFN-γ ELISPOT assay; type: cell-based, human; settings: peptide 10 μg/ml
Experimental: ELISPOT assay was used to assess whether stimulation of PBMC from a large panel of seropositive donors with HCMV peptides could induce IFN-γ expression in T cells. Briefly, a 96-well nitrocellulose plate (Multiscreen, Millipore) was coated overnight at 4° C. with mouse monoclonal antibody anti-IFN-γ IgG1 (10 μg/ml; Mabtech Nacka, Sweden). The plate was then washed six times in Phosphate Buffered Saline (PBS) and blocked for 1 hour at 37° C. with PBS supplemented with 5% FCS. The blocking solution was removed and PBMC from healthy HCMV seropositive donors were added at a concentration of 2.5×10^5 cells per well in growth medium. These cells were incubated for 18 h at 37° C. in a 5% CO2 atmosphere in the presence of synthetic peptides from HCMV antigens (10 μg/ml). After incubation, the plate was washed three times with PBS supplemented with 0.05% Tween, followed by three washes with PBS alone. Biotinylated anti-IFN-γ (Mabtech, Nacka Sweden) detection antibody was added to each well at a final concentration of 1 μg/ml in PBS. The plates were incubated at room temperature in the dark for 4 h and then washed, as described above. Streptavidin-Alkaline phosphatase (Sigma) was added to each well at a final concentration of 1 μg/ml in PBS and incubated at room temperature in the dark for 2 h. After a final wash with PBS, the substrate, 5-bromo-4-chloro-3-indolyl phosphate and nitro blue tetrazolium, was added to each well and the plates incubated for 30 min at RT. Cells that produced IFN-γ in response to the presence of peptide were detected as purple spots on the nitrocellulose membrane of each well. The spots were counted automatically using a closed-circuit camera (CCD) and ImagePro image analysis software or automated ELISPOT reader (AID, Germany). The T cell precursor frequency for each peptide was based on the total number of PBMC in the well and the number of peptide-specific spots per well, over an average of 3 wells. The number of peptide-specific spots was also calculated by subtracting the negative control values, which consisted of PBMC without peptide (an average of 3 wells), from the test wells.
To determine whether memory CTL responses against the predictive HCMV potential epitopes could be detected in healthy seropositive virus carriers, we used the ELISPOT assay, which allows rapid identification of CTL epitopes without prolonged in vitro culture.
We tested epitopes that were restricted for HLA A1, A3, A24, A26, B7, B8, B27, B35 and B44 in ELISPOT assays, to determine whether memory T cell responses could be detected in healthy HLA-matched virus carriers. PBMC from a cohort of healthy virus carriers (Table 2) were stimulated with individual peptides and the cells that produced IFN-γ were detected. CTL epitopes that were restricted through either HLA A1, A3, A24, A26, B7, B8 or B27, were identified.
Thus, a total of 450 peptides were produced. ELISPOT assays were used to determine whether ex vivo memory T cell responses could be detected in a cohort of 14 healthy virus carriers (Table 2). PBMC were stimulated with individual peptides and the cells that produced IFN-γ were detected.

HLA A2 = biological target: T1, HLA A2 (Homo sapiens, UniProt P04439, D140Y/D185E/D98H/E176V/E277Q/G131W/G231S/I119V/I121R/I166T/I218V/L300P/L318F/N151K/N90K/P208A/P217A/Q86G/Q94H/R138H/R169H/T345S); type: cell-based; settings: HLA A2 on T2 cells; relative increase in HLA expression vs no peptide at 26° C.
T1 construct: endogenous in cells; host or cells: T2 cells

Sequence	MSE (MHC stabilization efficiency) (HLA A2)	other results
ALVNAVNKL (human cytomegalovirus pp150 CTL epitope peptide)	++ (++ = 100-199%)	ELISPOT Responses (SFC/10^6 PBMC) ([1]; donor ten): WS(60) SFC/10^6 PBMC
ALVNFLRHL (human cytomegalovirus pp150 CTL epitope peptide)	++ (++ = 100-199%)	ELISPOT Responses (SFC/10^6 PBMC) ([1]; donor ten): WS(57) SFC/10^6 PBMC
CLQNALDIL (human cytomegalovirus IE1 CTL epitope peptide)	++ (++ = 100-199%)	ELISPOT Responses (SFC/10^6 PBMC) ([1]; donor delta): SE(490) SFC/10^6 PBMC
FLMEHTMPV (human cytomegalovirus IE2 CTL epitope peptide)	++ (++ = 100-199%)	ELISPOT Responses (SFC/10^6 PBMC) ([1]; donor ten): WS(137) SFC/10^6 PBMC
ILARNLVPM	++ (++ = 100-199%)	ELISPOT Responses (SFC/10^6 PBMC) ([1]; donor delta): SE(170) SFC/10^6 PBMC
KMSVRETLV (human cytomegalovirus pp150 CTL epitope peptide)	++ (++ = 100-199%)	ELISPOT Responses (SFC/10^6 PBMC) ([1]; donor delta): SE(69) SFC/10^6 PBMC
LIEDFDIYV (human cytomegalovirus pp150 CTL epitope peptide)	++ (++ = 100-199%)	ELISPOT Responses (SFC/10^6 PBMC) ([1]; donor ten): WS(88) SFC/10^6 PBMC
LIFGHLPRV (human cytomegalovirus gH CTL epitope peptide)	++ (++ = 100-199%)	ELISPOT Responses (SFC/10^6 PBMC) ([1]; donor delta): SE(84) SFC/10^6 PBMC
LLFRTLLVYL (human cytomegalovirus US3 CTL epitope peptide)	+++ (+++ = 200-300%)	ELISPOT Responses (SFC/10^6 PBMC) ([1]; donor seven): 76 SFC/10^6 PBMC; ELISPOT Responses (SFC/10^6 PBMC) ([1]; donor ten): 77 SFC/10^6 PBMC
LLIDPTSGL (human cytomegalovirus pp28 CTL epitope peptide)	+ (+ = 51-99%)	ELISPOT Responses (SFC/10^6 PBMC) ([1]; donor beta): 77 SFC/10^6 PBMC; ELISPOT Responses (SFC/10^6 PBMC) ([1]; donor seven): 270 SFC/10^6 PBMC
LLIPKSFTL (human cytomegalovirus pp71 CTL epitope peptide)	− (− = 0-50%)	–
LLLIVTPVV (human cytomegalovirus pp28 CTL epitope peptide)	++ (++ = 100-199%)	–
LLMMSVYAL (human cytomegalovirus gH CTL epitope peptide)	++ (++ = 100-199%)	–
LLNCAVTKL (human cytomegalovirus pp50 CTL epitope peptide)	++ (++ = 100-199%)	ELISPOT Responses (SFC/10^6 PBMC) ([1]; donor delta): SE(59) SFC/10^6 PBMC
LLSEFCRVL (human cytomegalovirus IE1 CTL epitope peptide)	++ (++ = 100-199%)	–
LLVEPCARV (human cytomegalovirus pp28 CTL epitope peptide)	++ (++ = 100-199%)	–
LLVLFIVYV (human cytomegalovirus US2 CTL epitope peptide)	− (− = 0-50%)	ELISPOT Responses (SFC/10^6 PBMC) ([1]; donor ten): WS(92) SFC/10^6 PBMC
LLYPTAVDL (human cytomegalovirus gH CTL epitope peptide)	+++ (+++ = 200-300%)	–
LMLLKNGTV (human cytomegalovirus gH CTL epitope peptide)	− (− = 0-50%)	ELISPOT Responses (SFC/10^6 PBMC) ([1]; donor seventeen): CJ(80) SFC/10^6 PBMC
LMNGQQIFL	++ (++ = 100-199%)	ELISPOT Responses (SFC/10^6 PBMC) ([1]; donor fifteen): 217 SFC/10^6 PBMC; ELISPOT Responses (SFC/10^6 PBMC) ([1]; donor ten): 751 SFC/10^6 PBMC
LMQKFPKQV (human cytomegalovirus IE2 CTL epitope peptide)	+ (+ = 51-99%)	–
NILQKIEKI (human cytomegalovirus pp150 CTL epitope peptide)	+ (+ = 51-99%)	–

Sequence	MSE (MHC stabilization efficiency) (HLA A2)	other results
NLALSTPFL (human cytomegalovirus IE2 CTL epitope peptide)	++ (++ = 100-199%)	–
NLFPYLVSA (human cytomegalovirus gB CTL epitope peptide)	++ (++ = 100-199%)	–
PLIPTTAVI (human cytomegalovirus pp150 CTL epitope peptide)	− (− = 0-50%)	–
PLREYLADL (human cytomegalovirus pp28 CTL epitope peptide)	− (− = 0-50%)	–
QLLIPKSFTL (human cytomegalovirus pp71 CTL epitope peptide)	− (− = 0-50%)	–
QLRSVIRAL (human cytomegalovirus pp50 CTL epitope peptide)	− (− = 0-50%)	–
QMLLALARL (human cytomegalovirus gB CTL epitope peptide)	+ (+ = 51-99%)	–
QMWQARLTV	+ (+ = 51-99%)	–
RIEENLEGV (human cytomegalovirus pp150 CTL epitope peptide)	+ (+ = 51-99%)	–
SAIIGIYLL (human cytomegalovirus gH CTL epitope peptide)	− (− = 0-50%)	–
SLVRLVYIL (human cytomegalovirus gH CTL epitope peptide)	+ (+ = 51-99%)	–
TLLVYLFSL (human cytomegalovirus US3 CTL epitope peptide)	++ (++ = 100-199%)	–
TLTEDFFVV (human cytomegalovirus gH CTL epitope peptide)	++ (++ = 100-199%)	–
TLVIPSWHV (human cytomegalovirus pp71 CTL epitope peptide)	++ (++ = 100-199%)	–
TMWCLTLFV (human cytomegalovirus UL18 CTL epitope peptide)	++ (++ = 100-199%)	–
TMYGGISLL (human cytomegalovirus IE1 CTL epitope peptide)	++ (++ = 100-199%)	–
VIGDQYVKV [reference compound]	++ (++ = 100-199%)	–
YINRALAQI (human cytomegalovirus gB CTL epitope peptide)	++ (++ = 100-199%)	–
YLLYRMLKT (human cytomegalovirus gH CTL epitope peptide)	− (− = 0-50%)	–
YLMDELRYV (human cytomegalovirus gH CTL epitope peptide)	++ (++ = 100-199%)	–
YLTVFTVYL (human cytomegalovirus gH CTL epitope peptide)	++ (++ = 100-199%)	–
